What was measured:
[1] = biological target: T1, human guanylyl cyclase C (GCC), full length (human), P25092; assay: whole cell binding of radiolabeled ST-toxin, T84 cells (endogenous GCC)
[2] = biological target: human GCC, full length with myc tag (293-GCC#2 cells) (human), P25092; assay: whole cell binding of radiolabeled ST-toxin, 293-GCC cells
[3] = biological target: T1, human guanylyl cyclase C (GCC), full …; assay: whole cell binding of radiolabeled ST-toxin, HT-29-GCC#2/#5 cells

T1 sequence (P25092 24-1073 limits assumed): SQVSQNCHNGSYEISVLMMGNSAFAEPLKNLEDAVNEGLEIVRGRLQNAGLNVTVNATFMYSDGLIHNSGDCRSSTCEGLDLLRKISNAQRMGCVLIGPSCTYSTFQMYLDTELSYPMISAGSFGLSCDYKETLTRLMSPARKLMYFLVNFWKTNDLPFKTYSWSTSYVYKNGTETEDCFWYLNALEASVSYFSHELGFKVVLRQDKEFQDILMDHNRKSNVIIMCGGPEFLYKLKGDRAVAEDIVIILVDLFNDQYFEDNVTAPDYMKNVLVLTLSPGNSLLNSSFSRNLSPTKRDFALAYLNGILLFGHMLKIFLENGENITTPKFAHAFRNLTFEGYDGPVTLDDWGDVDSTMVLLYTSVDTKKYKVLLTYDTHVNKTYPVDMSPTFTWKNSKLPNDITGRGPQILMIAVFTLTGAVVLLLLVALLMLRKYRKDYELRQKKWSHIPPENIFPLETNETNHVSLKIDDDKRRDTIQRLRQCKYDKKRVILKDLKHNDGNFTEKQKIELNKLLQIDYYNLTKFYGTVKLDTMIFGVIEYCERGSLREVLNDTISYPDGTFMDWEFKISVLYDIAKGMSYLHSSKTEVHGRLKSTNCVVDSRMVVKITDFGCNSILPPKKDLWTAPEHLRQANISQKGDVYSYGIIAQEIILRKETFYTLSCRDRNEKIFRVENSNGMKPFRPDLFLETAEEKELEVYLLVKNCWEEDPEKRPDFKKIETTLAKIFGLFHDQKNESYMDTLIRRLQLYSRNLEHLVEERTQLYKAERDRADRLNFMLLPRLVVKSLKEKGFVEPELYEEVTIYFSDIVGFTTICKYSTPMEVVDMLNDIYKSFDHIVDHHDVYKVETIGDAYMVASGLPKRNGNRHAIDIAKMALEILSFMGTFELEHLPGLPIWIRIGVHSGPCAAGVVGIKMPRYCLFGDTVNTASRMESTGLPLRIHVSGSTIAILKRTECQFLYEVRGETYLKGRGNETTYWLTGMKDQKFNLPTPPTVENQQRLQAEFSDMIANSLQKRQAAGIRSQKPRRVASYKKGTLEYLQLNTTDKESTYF
Chain of human GCC, full length with myc tag (293-GCC#2 cells) (human), P25092 (P25092 24-1073): as the sequence (P25092 24-1073 limits assumed) above

Binder: NTFYCCELCCNPACAGCY (modifications not checked) [heat-stable enterotoxin (ST) peptide]
- Whole cell binding assay (receptor/cell) (receptor/cell) [1]: 300000
- Whole cell binding assay (receptor/cell) (receptor/cell) [2]: 600000
- Whole cell binding assay (receptor/cell) (receptor/cell) [3]: 100000

From US20140322233A1
